Reference: paper PMC4011586

Molecular target: human platelet-derived growth factor alpha receptor (human (endogenous in U373)) (UniProt P16234)
Sequence of UniProt P16234 (P16234 24-1089): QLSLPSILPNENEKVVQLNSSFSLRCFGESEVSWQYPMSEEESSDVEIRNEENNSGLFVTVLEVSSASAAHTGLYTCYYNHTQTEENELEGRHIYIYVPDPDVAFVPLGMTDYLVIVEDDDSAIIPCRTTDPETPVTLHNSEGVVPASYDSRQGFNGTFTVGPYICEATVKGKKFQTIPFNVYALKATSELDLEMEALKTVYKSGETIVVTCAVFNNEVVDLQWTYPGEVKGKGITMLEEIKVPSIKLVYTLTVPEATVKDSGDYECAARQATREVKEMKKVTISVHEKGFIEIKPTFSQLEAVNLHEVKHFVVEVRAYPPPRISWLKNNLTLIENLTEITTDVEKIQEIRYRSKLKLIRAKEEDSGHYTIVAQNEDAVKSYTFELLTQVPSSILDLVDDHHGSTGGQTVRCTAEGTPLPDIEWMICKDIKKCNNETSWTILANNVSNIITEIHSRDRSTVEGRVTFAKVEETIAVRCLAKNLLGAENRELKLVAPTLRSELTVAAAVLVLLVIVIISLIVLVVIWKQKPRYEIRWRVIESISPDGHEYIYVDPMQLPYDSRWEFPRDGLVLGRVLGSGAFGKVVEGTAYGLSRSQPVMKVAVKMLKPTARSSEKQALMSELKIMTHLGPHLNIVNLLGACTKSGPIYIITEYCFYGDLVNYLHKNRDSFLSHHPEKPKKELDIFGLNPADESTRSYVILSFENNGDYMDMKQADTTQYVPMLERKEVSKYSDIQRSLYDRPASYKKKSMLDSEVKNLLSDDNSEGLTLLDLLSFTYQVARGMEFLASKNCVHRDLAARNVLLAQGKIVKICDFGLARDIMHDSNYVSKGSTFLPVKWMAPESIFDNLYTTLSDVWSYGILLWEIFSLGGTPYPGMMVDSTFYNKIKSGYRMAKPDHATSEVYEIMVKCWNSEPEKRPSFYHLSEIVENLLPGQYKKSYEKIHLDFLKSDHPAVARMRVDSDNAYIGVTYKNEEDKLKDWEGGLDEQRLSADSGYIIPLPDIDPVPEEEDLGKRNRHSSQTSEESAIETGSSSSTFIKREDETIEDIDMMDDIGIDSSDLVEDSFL

## recombinant HCMV glycoprotein B (from UniProt P13201 23-907) (ligand)
  phosphorylation of PDGFRα in U373 cells stimulated with recombinant gB, cell based ELISA, relative to PDGF-AA (100%): 50%
